Test results: PMC5045189, “High Resolution Mapping of Bactericidal Monoclonal Antibody Binding Epitopes on Staphylococcus aureus Antigen MntC” (PLoS Pathogens, 2016)

How the values were obtained:
[1] = target: T1, Staphylococcus aureus manganese transporter protein MntC, wild type, recombinant (Staphylococcus aureus); test: ITC; conditions: both partners purified
T1 construct: also called wild type MntC; full length MntC; source: recombinant; cloning, expression and purification previously described [3]
T1 chain: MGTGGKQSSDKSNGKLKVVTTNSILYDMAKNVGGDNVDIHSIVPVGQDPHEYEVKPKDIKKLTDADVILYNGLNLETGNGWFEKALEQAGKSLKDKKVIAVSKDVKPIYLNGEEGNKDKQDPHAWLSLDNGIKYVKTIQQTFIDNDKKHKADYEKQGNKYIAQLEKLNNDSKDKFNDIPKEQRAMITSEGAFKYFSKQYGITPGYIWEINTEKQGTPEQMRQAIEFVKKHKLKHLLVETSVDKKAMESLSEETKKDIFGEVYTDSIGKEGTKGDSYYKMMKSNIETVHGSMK

[2] = target: T2, Histidine-tagged wild-type MntC (pET-19b) (Staphylococcus aureus); test: BLI; conditions: both partners purified
T2 construct: source: E. coli BL21(DE3), purified (HisPur Ni-NTA Agarose, size-exclusion chromatography); not shown: His-tag, N-terminal, kept
T2 chain: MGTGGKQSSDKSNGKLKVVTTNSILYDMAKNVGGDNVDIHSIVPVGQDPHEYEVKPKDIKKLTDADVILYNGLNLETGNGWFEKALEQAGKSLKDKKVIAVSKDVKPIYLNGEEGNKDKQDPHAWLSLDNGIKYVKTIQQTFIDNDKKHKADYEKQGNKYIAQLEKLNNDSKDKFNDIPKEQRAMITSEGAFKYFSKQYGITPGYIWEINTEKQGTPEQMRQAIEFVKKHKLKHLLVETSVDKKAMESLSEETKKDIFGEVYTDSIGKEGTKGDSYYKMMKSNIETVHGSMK

B1: monoclonal antibody mAB 305-78-7 (intact antibody, interference group 2) (antibody, V domains shown)
VH: QVQLQQSGAELARPGASVKMSCKASGYTFTRYTMHWVQQRPGQGLEWIGYINPSSDYTKYNQKFKDKATMTADKSSSTAYMQLSSLTSEDSAVYYCARKEDVGYWYFDFWGTGTTVTVSS
VL: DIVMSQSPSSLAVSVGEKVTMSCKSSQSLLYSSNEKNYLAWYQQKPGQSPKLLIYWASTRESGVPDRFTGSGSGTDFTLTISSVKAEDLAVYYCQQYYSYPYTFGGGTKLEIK
notes: source: generation previously described [3]
B1 was tested, and the Kd [1] was 1.2 nM, the dH [1] was -19.9 kcal/mol and the Kd [2] was 1.2 nM. It also gave a koff [2] of 0.00024 s⁻¹ and a kon [2] of 220000 M⁻¹ s⁻¹.
